Test [1] concerns the target recombinant VPS35/VPS29 complex (wild type) (UniProt Q96QK1 1-796; Q9UBQ0 1-182). As to the kind of experiment: ITC; FAM21 R20-21 titrated into the VPS35/VPS29 complex; three experiments for each complex with two independently prepared protein samples; global fitting with SEDPHAT. The conditions noted are these: both partners purified. (ITC needs no label: the signal is the heat of the interaction.)

For test [2], the target named is recombinant VPS35(D620N)/VPS29 complex (UniProt Q96QK1 1-796; Q9UBQ0 1-182, D620N). The description is as above. To be noted: both partners purified.

In general, Kd refers to the constant that tells how readily two partners part at equilibrium. Usually stoichiometry N stands for the number of molecules, sites or subunits per partner or assembly.

B1: FAM21 R20-21 fragment (domain or fragment)
chain: KSKKKVEAKSIFDDDMDDIFSTGIQAKTTKPKSRSAQAAPEPRFEHKVSNIFDDPLNAFGGQ
modifications: Limits not printed (construct is in cited ref 16); taken as the C-terminal tail spanning LFa motifs 20-21. The LFa 20/21 positions are recalled from the entry's annotation and not shown in the …
Turning to B1, in test [1], the Kd came to 2.4 µM and the “stoichiometry N” value was 2 R20-21 per VPS35/VPS29 (by the order of the sentence).

B2: FAM21 R20-21 fragment (domain or fragment)
chain: KSKKKVEAKSIFDDDMDDIFSTGIQAKTTKPKSRSAQAAPEPRFEHKVSNIFDDPLNAFGGQ
On to B2, for which the Kd in test [2] was found to be 4.6 µM.

The values are drawn from paper PMC4110399 (Current Biology, 2014).
